Source: US6610289B2, “Mutated herpes simplex virus type 1 thymidine kinases and uses thereof” (The Board of Trustees of the University of Arkansas, priority 1998, dated 2003)
Where two headings read alike, the source gives them in different places.

Key:
HCT-116 cells [1] = assay: Cell cycle analysis of GCV treated cells (propidium iodide flow cytometry); type: cell-based, human; details: +GCV 25 μM, 24 hours, HCT-116 expressing the TK
Method: Parental HCT-116 cells and each HSV-1 TK expressing cell line were grown to 60% confluency in 25 cm^2 flasks and treated for 24 hours minus (−GCV, panels A, C, E and G) or plus (+GCV, panels B, D, F and H) 25 μM GCV. Cells were fixed in 70% ethanol overnight, and later incubated with RNAase (0.1%) and propidium iodide (1 mg/ml) for […] on ice. Flow cytometry measuring propidium iodide fluorescence was done with a Becton-Dickinson FACScalibur instrument using MODFIT computer software. FIGS. 6A and 6B: HCT-116 cells; FIGS. 6C and 6D: wild-type HSV-1 TK cells; FIGS. 6E and 6F: Asn-125TK cells, FIGS. 6G and 6H: Glu-125TK cells.
Parental HCT-116 cells and each HSV-1 TK expressing cell line were grown to 60% confluency in 25 cm^2 flasks and treated for 24 hours plus or minus 25 μM GCV. Following drug incubation, cells were removed by trypsin and total cell numbers determined. Following two phosphate buffered saline rinsing and centrifugation cycles, the cell pellets were resuspended in 1 ml of 70% ethanol and stored at 4° C. until further analysis. Just prior to cell cycle analysis, the ethanol was removed and cell pellets were resuspended in phosphate-buffered saline plus RNAase (0.1%) and propidium iodide (1 mg/ml) for 30 minutes on ice. Flow cytometry measuring propidium iodide fluorescence was done with a Becton-Dickinson FACScalibur instrument. Cell cycle distribution of the cells were determined using MODFIT computer software
GCV has also been previously reported to induce S and G2-M phase cell cycle arrest in HSV-1 TK expressing glioma and melanoma cell lines (36-38). Therefore, the effect of 24 hr GCV treatment on the cell cycling of parental and the three HSV-1 TK-expressing cell lines was examined by flow cytometry of propidium iodide stained cells. As shown in FIGS. 6A and 6B and Table 5, GCV treatment of HCT-116 parental, non-HSV-1 TK-expressing cells had little effect on the percentage of cells in each phase of the cell cycle as compared with untreated cells. In the wild-type and Asn-125TK-expressing cell lines, GCV treatment (FIGS. 6D and 6F) led to an increase in the proportion of cells in the S-phase, and undetectable percentages in G2-M phase when compared to untreated cultures (FIGS. 6C and 6E). For the Glu-125TK-expressing cells, over 50% of the GCV treated cells were in S-phase and less than 3% were in G2-M (FIG. 6H).

HSV-1 TK = type: biochemical, herpes simplex virus type 1; details: for Decrease in kcat for GCV compared to wild-type enzyme: substrate GCV
Method: For determination of Km values of thymidine and GCV for the four enzymes, the filter binding assay was utilized. The basic reaction components were as above, and the following enzyme concentrations, substrate ranges and times were used under linear initial velocity conditions: for [^3H]thymidine: parent Gln-125TK: 0.1 μg TK, 0.1-4 μM, 10 min; Asn-125TK: 0.2 μg TK, 0.25-10 μM, 15 min; Asp-125TK: 4 μg TK, 0.1-2.5 μM, 30 min; Glu-125TK 0.5 μg TK, 0.5-2.5 μM, 15 min. For [^3H]GCV: parent Gln-125TK: 2 μg TK, 5-100 μM, 15 min; Asn-125TK: 0.6 μg TK, 0.5-15 μM, 15 min; Asp-125TK: Not determined; Glu-125TK 4 μg TK, 50-1000 μM, 25 min. Each reaction was done in triplicate. For calculation of kinetic constants, non-linear regression Michaelis-Menten analyses were done using PSI-PLOT version 5.0 (Poly Software International).
Unlike the substrate screening assays presented in Table 1, linear velocity conditions for each enzyme and substrate were established prior to Km determinations.

HCT-116 cells [2] = assay: MTT cell viability, sensitivity to GCV killing, HCT-116 cell lines expressing HSV-1 TKs; type: cell-based, human; details: HCT-116, GCV 0-5 μM, 4 days, FIG. 3B
Method: (§1) Cells were plated in triplicate and exposed to 0, 0.05, 0.5 or 5 μM GCV for four days. Cell viabilities were determined using MTT dye. […] FIG. 3A: NIH3T3 cell lines, FIG. 3B: HCT-116 cell lines; parental cells (noTK, dark bands); Asp125TK (Asp-#, brick band); Glu-125TK (Glu-#, cross-hatch bands); Asn-125TK (Asn-#, gray bands); wild-type HSV-1 TK (WT-#, striped bands).
(§2) A Moloney murine leukemia virus derived plasmid for the expression of HSV-TK, termed pLENTK, has been previously constructed (24). A unique BspEI-MluI restriction fragment within the HSV-TK sequence of pLENTK contains the Gln-125 mutation site. This fragment was removed from wild-type plasmid and replaced with the analogous fragments encoding each mutant. […] Along with wild-type HSV-1 TK plasmid, each mutant-TK plasmid was transfected individually into the murine fibroblast cell line, NIH 3T3, and the human colon tumor cell line, HCT-116, using lipofectin reagent (GIBCO/BRL) (2 μg plasmid, 14 μl lipid per 1×10^6 cells). Cells were maintained in RPMI 1640 media and selected with G418 (200 μg/ml for 2 weeks) as previously described (24). At least eight individual G418 resistant cell clones were picked and grown up for further characterization. Each clone was screened initially for growth inhibition by 25 μM GCV. Those clones that were sensitive were further analyzed for HSV-TK protein expression by Western blot analysis with a polyclonal, rabbit anti-HSV-TK antibody (a gift from Dr. Margaret Black). For each clone, cell numbers were normalized to 1×10^6, and equal protein loading was confirmed for each sample by gel staining. Blotted HSV-1 TK protein bands were visualized on film using ECL chromophore reagents (Amersham). For analysis of GCV sensitivity of different clones, NIH3T3 and HCT-116 cell sets were seeded in 96 well plates in 0.1 ml media (15,000 cells/well). The next day, a dose range of GCV (0.005 to 5 mM, n=3) was added in 0.1 ml media. After 4 days, MTT ([…]) was added for 1.5 hours, followed by DMSO solubilization of the cells and absorbance reading at 540 nm (25).
(§3) cDNA for each mutant was incorporated into a Moloney murine leukemia virus plasmid (24). The plasmids for wild-type HSV-1 TK and each mutant were individually transfected into either NIH3T3 cells or the human colon tumor cell line, HCT-116. Following drug selection in G418, individual cell clones were evaluated for sensitivity to GCV and relative levels of HSV-1 TK expression. Using an HSV-1 TK antibody and extracts normalized by protein and cell number, the relative expression levels of HSV-1 TK in each cell clone were determined.

NIH3T3 cells = assay: MTT cell viability, sensitivity to GCV killing, NIH3T3 cell lines expressing HSV-1 TKs; type: cell-based, murine; details: NIH3T3, GCV 0-5 μM, 4 days, FIG. 3A
Method: as §1
as §2, with “For each clone, cell numbers were normalized to 1×10^6, and equal protein loading was confirmed for each sample by gel staining. Blotted HSV-1 TK protein bands were visualized on film using ECL chromophore reagents (Amersham). For analysis of GCV sensitivity of different clones, NIH3T3 and HCT-116 cell sets were seeded in 96 well plates in 0.1 ml media (15,000 cells/well). The next day, a dose range of GCV (0.005 to 5 mM, n=3) was added in 0.1 ml media.” left out
as §3, with “The plasmids for wild-type HSV-1 TK and each mutant were individually transfected into either NIH3T3 cells or the human colon tumor cell line, HCT-116.” left out

[3] = substrate ganciclovir, read-out: Km ganciclovir
[4] = substrate thymidine, read-out: Km thymidine

## Asn-125
HCT-116 cells [1]
  Cell cycle phase G0/G1: 70.0%
  Cell cycle phase S: 30.0%
HSV-1 TK
  Decrease in kcat for GCV compared to wild-type enzyme: 6 fold
HSV-1 TK; substrate ganciclovir
  kcat ganciclovir: 0.08 s⁻¹
HSV-1 TK; [3]
  Km: 50 µM
HSV-1 TK; substrate thymidine
  Change of kcat for thymidine relative to wild-type (in words): doubled
  Increase of Km for thymidine relative to wild-type enzyme: ~20 fold
  kcat thymidine: 0.13 s⁻¹
HSV-1 TK; [4]
  Km: 20 µM
HCT-116 cells [2]
  Dose dependent cell killing by GCV (cell viability, MTT): as effective as wild-type HSV-1 TK
HCT-116 cells [2]; listed as Asn-125TK
  Dose dependent cell killing by GCV (cell viability, MTT): proportionally more cell killing
NIH3T3 cells
  Dose dependent cell killing by GCV (cell viability, MTT): proportionally more cell killing

## Gln-125 (WT): wild-type herpes simplex virus type 1 thymidine kinase with glutamine at position 125, parent enzyme [reference compound]
HCT-116 cells [1]
  Cell cycle phase G0/G1: 60.1%
  Cell cycle phase G2/M: undetectable
  Cell cycle phase S: 39.9%
HCT-116 cells [1]; listed as WTGln-125TK
  Cell cycle phase G2/M: 0%
HSV-1 TK; substrate ganciclovir
  kcat ganciclovir: 0.47 s⁻¹
HSV-1 TK; [3]
  Km: 69 µM
HSV-1 TK; substrate thymidine
  kcat thymidine: 0.06 s⁻¹
HSV-1 TK; [4]
  Km: 0.9 µM
HCT-116 cells [2]; listed as Gln-125
  Dose dependent cell killing by GCV (cell viability, MTT): as effective as wild-type HSV-1 TK
HCT-116 cells [2]; listed as wild-type
  Dose dependent cell killing by GCV (cell viability, MTT): proportionally more cell killing
NIH3T3 cells
  Dose dependent cell killing by GCV (cell viability, MTT): proportionally more cell killing

## Glu-125
HCT-116 cells [1]
  Cell cycle phase G0/G1: 39.0%
HSV-1 TK
  Decrease in kcat for GCV compared to wild-type enzyme: 12 fold
HSV-1 TK; substrate ganciclovir
  kcat ganciclovir: 0.04 s⁻¹
HSV-1 TK; [3]
  Km: 473 µM
HSV-1 TK; substrate thymidine
  Decrease in kcat for thymidine relative to wild-type: 20 fold
  Increase of Km for thymidine relative to wild-type enzyme: approximately 3 fold
  kcat thymidine: 0.003 s⁻¹
HSV-1 TK; [4]
  Km: 3 µM
HCT-116 cells [2]; listed as Glu-125 HSV-1 TK
  Dose dependent cell killing by GCV (cell viability, MTT): just as sensitive to GCV killing
HCT-116 cells [2]; listed as Glu-125TK
  Dose dependent cell killing by GCV (cell viability, MTT): cell viabilities dropped precipitously
NIH3T3 cells
  Dose dependent cell killing by GCV (cell viability, MTT): minimal cell killing
